Positions count from the first letter of the chain named.
T1: human IL-23R expressed on the cell surface of stably transfected iLite and HEK cell lines (human, UniProt Q5VWK5 24-629)
T1 construct: whole, on cells; Same receptor on two transfected cell lines; the cell line is named under assay; also called human IL-23R iLite cells; human IL-23R HEK cells
T1 sequence (looked up): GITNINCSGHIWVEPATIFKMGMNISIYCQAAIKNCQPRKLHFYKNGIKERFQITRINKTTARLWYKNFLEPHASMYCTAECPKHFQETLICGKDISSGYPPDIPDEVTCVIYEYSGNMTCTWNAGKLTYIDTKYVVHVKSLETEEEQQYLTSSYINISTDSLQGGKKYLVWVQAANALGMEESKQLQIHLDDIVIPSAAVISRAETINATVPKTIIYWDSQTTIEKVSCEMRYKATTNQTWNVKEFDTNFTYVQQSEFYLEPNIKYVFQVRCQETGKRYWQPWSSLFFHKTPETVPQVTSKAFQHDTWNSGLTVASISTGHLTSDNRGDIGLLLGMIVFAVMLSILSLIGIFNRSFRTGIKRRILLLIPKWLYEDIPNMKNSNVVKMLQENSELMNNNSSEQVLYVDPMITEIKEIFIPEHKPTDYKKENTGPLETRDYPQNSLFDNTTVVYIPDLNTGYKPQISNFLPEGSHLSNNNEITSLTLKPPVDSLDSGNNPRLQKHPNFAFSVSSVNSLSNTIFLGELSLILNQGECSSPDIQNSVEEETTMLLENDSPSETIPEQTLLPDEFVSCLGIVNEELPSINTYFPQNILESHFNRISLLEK

T2: human IL-23R extracellular domain (ECD) protein (human, UniProt Q5VWK5 24-355)
T2 construct: Recombinant ECD; also called hu IL-23R ECD
T2 sequence: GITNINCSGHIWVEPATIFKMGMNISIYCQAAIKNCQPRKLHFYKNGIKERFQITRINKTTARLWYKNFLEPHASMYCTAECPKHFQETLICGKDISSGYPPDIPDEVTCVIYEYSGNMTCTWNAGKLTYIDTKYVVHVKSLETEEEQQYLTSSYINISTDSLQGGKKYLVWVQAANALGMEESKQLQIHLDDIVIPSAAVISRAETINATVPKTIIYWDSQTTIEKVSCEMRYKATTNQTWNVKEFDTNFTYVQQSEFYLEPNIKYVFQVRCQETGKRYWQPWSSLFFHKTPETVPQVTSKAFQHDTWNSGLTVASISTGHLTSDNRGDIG

B1: I23RB7 (antibody, mouse IgG2a, kappa, V domains shown)
VH: QIQLVQSGPELKKPGETVKISCKASGYTFTTYGMSWVKQAPGKGLKWMGWINTYSGVPTYADDFKGRFAFSLETSASTAYLQINNLKNEDTATYYCARRDRYGYVAGAFAYWGQGTLVTVSS
VL: QIVLTQSPAIMSASPGEKVTMTCSASSSVSYMYWYQQKPGSSPRLLIYDTSNLASGVPVRFSGSGSGTSYSLTISRMEAEDAATYYCQQWSSYPWTFGGGTKLEIKR
notes: phage display; mouse V, mouse IgG2a/kappa
B2: I23RB1 (antibody, mouse IgG2a, kappa, V domains shown)
VH: QVQLVQSGAEVKKPGSSVKVSCKASGGTFKNYAISWVRQAPGQGLEWMGWIRPIFGTAYYAQKFQGRVTITADESTSTAYMELSSLRSEDTAVYYCARDSGSRYAGRYAFDYWGQGTLVTVSS
VL: EIVLTQSPATLSLSPGERATLSCRASQSVSSYLAWYQQKPGQAPRLLIYDASNRATGIPARFSGSGSGTDFTLTISSLEPEDFAVYYCQQRSNWPLTFGQGTKVEIKR
notes: phage display; human V, mouse IgG2a/kappa
B3: I23RB4 (antibody, mouse IgG2a, kappa, V domains shown)
VH: QVQLVQSGAEVKKPGSSVKVSCKASGGTFKTYAIHWVRQAPGQGLEWMGWIIPIFGTANYAQKFQGRVTITADESTSTAYMELSSLRSEDTAVYYCARDGGYYGSRYYPRSYYFDYWGQGTLVTVSS
VL: B2 VL
notes: as for B2
B4: I23RB3 (antibody, mouse IgG2a, kappa, V domains shown)
VH: QVQLVQSGAEVKKPGSSVKVSCKASGGTFKSYSIHWVRQAPGQGLEWMGGIIPYFGYANYAQKFQGRVTITADESTSTAYMELSSLRSEDTAVYYCARERGYYGSIYYGGGFDYWGQGTLVTVSS
VL: B2 VL
notes: as for B2
B5: I23RB2 (antibody, mouse IgG2a, kappa, V domains shown)
VH: QVQLVQSGAEVKKPGSSVKVSCKASGGTFSSYAISWVRQAPGQGLEWMGGIIPIFGTANYAQKFQGRVTITADESTSTAYMELSSLRSEDTAVYYCARDRYRYLGANGFDYWGQGTLVTVSS
VL: B2 VL
notes: as for B2
B6: I23RB189 (antibody, mouse IgG2a, kappa, V domains shown)
VH: DVQLQESGPDLVKPSQSLSLTCTVTGYSITSGYNWHWIRQFPGNKLEWMGYIHSSGTTNYSPSLRSRLSITRDTSKNQFFLQLNSVTTEDTATYYCTRQLGLKAMEYWGQGTTLTVSS
VL: DIVLTQSPKSMSMSVGERVTLSCKASENVGTYVSWYQQKPEQSPKLLMYGASNRYTGVPDRFTGSGSATDFTLTISSVQAEDLADYHCGQSYSYPPTFGGGTKLEIKR
notes: immunization; mouse IgG2a/kappa
B7: I23RB149 (antibody, mouse IgG2a, kappa, V domains shown)
VH: B6 VH with S54F, G56D, T57R, S61N, R65K, L68I, T88S, T97S, M105L, E106D
VL: DVQMIQSPLSLPVSLGDQASISCRSSQSLVHSNGNTYLHWYLQKPGQSPKLLIYKVSNRFSGVPDRFSGSGSGTDFTLKISRVEAEDLGVYFCSQSTHVPLTFGAGTRLEIKR
notes: as for B6

How the values were obtained:
[1] = biological target: T1, human IL-23R expressed on the cell …; test: flow cytometry on human IL-23R iLite cells, Expt C (12-point), Gate 1 + 2
Method: (§1) Human IL-23R iLiTe cell concentration response mAb binding. […] The next day 100,000 cells were added to each well of a 96 well V bottom plate (Costar, Catalog #3357), centrifuged at 450× gravity for 2 minutes, and then supernatants were decanted. Antibodies were diluted in Stain Buffer (BSA) (BD Pharmagen, Catalog #554657) and added at 50 μL/well, and mixed. Plates were incubated on ice for 50 minutes, then plates were centrifuged and supernatants were decanted. […] Cells were washed by adding 200 μL/well of Stain Buffer followed by centrifugation and decanting of the supernatants. Cells were resuspended in 100 μL/well of Stain Buffer, transferred in quadruplicate to a 384 well plate (Greiner, Catalog #781281) and analyzed on the Becton Dickenson LSR II FACS instrument with HTS module. Data was analyzed using FlowJo software (Treestar) to obtain geometric mean fluorescence intensities, and geometric mean fluorescence intensities were plotted over log mAb concentrations fitted with a sigmoidal dose response curve with variable slope using GraphPad Prism.

[2] = biological target: T1, human IL-23R expressed on the cell …; test: flow cytometry on human IL-23R iLite cells, Expt A (1-point)
Method: Human IL-23R iLiTe cell single concentration mAb Binding. Anti-IL-23R mouse IgG₂ₐ mAbs derived from phage panning were tested for binding to human IL-23R expressing iLiTe cells, where a PE conjugated anti mouse secondary antibody detected mAbs bound to the receptor on the cells. […] The next day 100,000 cells were added to each well of a 96 well V bottom plate (Costar, Catalog #3357), centrifuged at 450× gravity for 2 minutes, and then supernatants were decanted. […] Antibodies diluted to 3 μg/mL in Stain Buffer (BSA) (BD Pharmagen, Catalog #554657) were added at 100 μL/well and incubated on ice for 50 minutes, then plates were centrifuged and supernatants were decanted. […] Cells were washed by adding 100 μL/well of Stain Buffer followed by centrifugation and decanting of the supernatants. Cells were resuspended in 100 μL/well of Stain Buffer and analyzed on the Becton Dickenson LSR II FACS instrument with HTS module. Data was analyzed using FlowJo software (Treestar) to obtain geometric mean fluorescence intensities.

[3] = biological target: T1, human IL-23R expressed on the cell …; test: flow cytometry on human IL-23R iLite cells, Expt C (12-point), Gate 2
Method: as §1

[4] = biological target: T1, human IL-23R expressed on the cell …; test: flow cytometry on human IL-23R iLite cells, Expt B (1-point)
Method: Human IL-23R iLiTe cell single concentration mAb Binding. Anti-IL-23R mouse IgG₂ₐ mAbs derived from phage panning were tested for binding to human IL-23R expressing iLiTe cells, where a PE conjugated anti mouse secondary antibody detected mAbs bound to the receptor on the cells. […] The next day 100,000 cells were added to each well of a 96 well V bottom plate (Costar, Catalog #3357), centrifuged at 450× gravity for 2 minutes, and then supernatants were decanted. […] Cells were washed by adding 100 μL/well of Stain Buffer followed by centrifugation and decanting of the supernatants. Cells were resuspended in 100 μL/well of Stain Buffer and analyzed on the Becton Dickenson LSR II FACS instrument with HTS module. Data was analyzed using FlowJo software (Treestar) to obtain geometric mean fluorescence intensities.

[5] = biological target: T2, human IL-23R extracellular domain (ECD) …; test: column 'Affinity to hu IL-23R ECD' (summary of SPR data)
[6] = biological target: T1, human IL-23R expressed on the cell …; test: flow cytometry on human IL-23R HEK cells, Expt E (11-point, 384well)
How it was run: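 Antibody bound to HEK-IL-23R cells 30 min at 37 °C over 11 concentrations; after washes, Sytox Green added and cells run on iQue. Geometric MFI of 647 detection antibody on single viable cells fitted by variable-slope dose–response.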

[7] = biological target: T1, human IL-23R expressed on the cell …; test: flow cytometry on human IL-23R HEK cells, Expt D (8-point, 96well); legend: N-No cell binding observed
Method: HEK-IL-23R cell concentration response mAb binding (8-point, 96-well assay). […] HEK-IL-23R and HEK-parental cells (12.5 μL of each, 120000 cells total) were plated in 2× replicate on 96-well V-bottom plates (Corning, Cat #3357) into 37° C. warmed Assay medium containing serially diluted IL-23R mAbs to a final volume of 150 μL. IL-23R mAbs were allowed to bind to cells for 30 minutes, at 37° C. […] Cells were next washed twice in ice-cold stain buffer, then resuspended in a final volume of 30 μL with Sytox Green viability dye (ThermoFisher, Cat #S7020). Plates were kept on ice until run for analysis on the iQue. All washes were performed by centrifugation (800 rcf, 3 minutes) followed by flick decantation to remove supernatants. Cell-binding to HEK-IL-23R cells was measured with FlowJo, by gating for single, viable cells and determining the geometric mean fluorescence intensity (MFI) for the 647 detection antibody. Geometric mean fluorescence intensities were plotted over log mAb concentrations fitted with a dose response curve with variable slope using GraphPad Prism.

| Binder | EC50 [1] | MFI @ 20 nM [2] | EC50 [3] | MFI @ 0.7 nM [4] | Kd [5] | MFI (6.4 nM) [6] | binding result [7] |
| --- | --- | --- | --- | --- | --- | --- | --- |
| B1 | 0.07 nM | 4320 MFI | 0.1 nM | 2230 MFI | 1 nM | 172000 MFI | – |
| B2 | 0.26 nM | 5090 MFI | 0.02 nM | 2990 MFI | – | 287000 MFI | – |
| B3 | 0.04 nM | 4390 MFI | 0.03 nM | 2990 MFI | – | 225000 MFI | – |
| B4 | 0.66 nM | 4320 MFI | 0.37 nM | 1460 MFI | – | 149000 MFI | – |
| B5 | 1.09 nM | 4110 MFI | 1.11 nM | 670 MFI | – | – | – |
| B6 | – | – | – | – | – | – | no binding |
| B7 | – | – | – | – | – | – | no binding |
